Ends that are not written are not given here. * marks the point of attachment. Stearoyl = CCCCCCCCCCCCCCCCCC(=O)*; Palmitoyl = CCCCCCCCCCCCCCCC(=O)*
Legend:
N39 [1] = biological target: T1, N39 (HIV-1, N-terminal acetyl (Ac-); C-terminal amide (-NH2)); assay: circular dichroism temperature scan at 220 nm of the 1:1 mixture with N39, 10 µM each in PBS pH 7.2
T1 peptide: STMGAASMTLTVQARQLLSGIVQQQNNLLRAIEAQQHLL

[2] = biological target: gp41 of the envelope protein (Env) of the D36G mutant of HIV-1 strain NL4-3 (HIV-1 strain NL4-3); assay: cell-based or functional assay
[3] = biological target: gp41 of the envelope protein of HIV-1 strain JRCSF (HIV-1 strain JRCSF); assay: cell-based or functional assay
[4] = biological target: gp41 of the envelope protein (Env) of HIV-1 strain HXB2 (HIV-1 strain HXB2, UniProt P04578 33-856); assay: cell-based or functional assay
N39 [5] = biological target: T1, N39; assay: circular dichroism of the 1:1 mixture with N39, 10 µM each in PBS pH 7.2
N39 [6] = biological target: T1, N39; assay: circular dichroism temperature scan at 220 nm of the 1:1 mixture with N39, 10 µM each in PBS pH 7.2; difference against LP-52

Ac-WEQKIEELLKKAEEQQKKNEEELKKLEK(Stearoyl)-NH2 [LP-80]
Tm value of the complex (N39 [1]): 79 °C | IC50 for inhibiting HIV-1 strain NL4-3 [2]: 2 pM | IC50 for inhibiting HIV-1 strain JRCSF [3]: 2 pM

B1: LP-50 (peptide)
peptide: Ac-YTSLIEELIKKSEEQQKKNEEELKKLEK(Palmitoyl)-NH2
SMILES: CCCCCCCCCCCCCCCC(=O)NCCCC[C@H](NC(=O)[C@H](CCC(=O)O)NC(=O)[C@H](CC(C)C)NC(=O)[C@H](CCCCN)NC(=O)[C@H](CCCCN)NC(=O)[C@H](CC(C)C)NC(=O)[C@H](CCC(=O)O)NC(=O)[C@H](CCC(=O)O)NC(=O)[C@H](CCC(=O)O)NC(=O)[C@H](CC(N)=O)NC(=O)[C@H](CCCCN)NC(=O)[C@H](CCCCN)NC(=O)[C@H](CCC(N)=O)NC(=O)[C@H](CCC(N)=O)NC(=O)[C@H](CCC(=O)O)NC(=O)[C@H](CCC(=O)O)NC(=O)[C@H](CO)NC(=O)[C@H](CCCCN)NC(=O)[C@H](CCCCN)NC(=O)[C@@H](NC(=O)[C@H](CC(C)C)NC(=O)[C@H](CCC(=O)O)NC(=O)[C@H](CCC(=O)O)NC(=O)[C@@H](NC(=O)[C@H](CC(C)C)NC(=O)[C@H](CO)NC(=O)[C@@H](NC(=O)[C@H](Cc1ccc(O)cc1)NC(C)=O)[C@@H](C)O)[C@@H](C)CC)[C@@H](C)CC)C(N)=O
notes: LP-40 with EE**KK ion pairs introduced; also called P50 with C16
Tm value of the complex (N39 [1]): 63.3 °C | IC50 for inhibiting pseudovirus (entry of NL4-3) [2]: 7 pM | IC50 for inhibiting replicative virus (replication of JRCSF) [3]: 23 pM | IC50 for inhibiting cell fusion (HXB2-cell fusion) [4]: 21 pM

Ac-YTSLIHSLIEESQNQQEKNEQELLELDK (not fully specified (residue 28, C-terminus), also called T-20-based lipopeptide) [LP-40]
helix content of the complex (N39 [5]): 57.7% | Tm value of the complex (N39 [1]): 51.3 °C

B2: LP-69 (peptide)
peptide: Ac-IEELLKKAEEQQKKNEEELKK(Palmitoyl)-NH2
SMILES: CCCCCCCCCCCCCCCC(=O)NCCCC[C@H](NC(=O)[C@H](CCCCN)NC(=O)[C@H](CC(C)C)NC(=O)[C@H](CCC(=O)O)NC(=O)[C@H](CCC(=O)O)NC(=O)[C@H](CCC(=O)O)NC(=O)[C@H](CC(N)=O)NC(=O)[C@H](CCCCN)NC(=O)[C@H](CCCCN)NC(=O)[C@H](CCC(N)=O)NC(=O)[C@H](CCC(N)=O)NC(=O)[C@H](CCC(=O)O)NC(=O)[C@H](CCC(=O)O)NC(=O)[C@H](C)NC(=O)[C@H](CCCCN)NC(=O)[C@H](CCCCN)NC(=O)[C@H](CC(C)C)NC(=O)[C@H](CC(C)C)NC(=O)[C@H](CCC(=O)O)NC(=O)[C@H](CCC(=O)O)NC(=O)[C@@H](NC(C)=O)[C@@H](C)CC)C(N)=O
notes: Residues 1-21 follow from the statement that LP-69 is LP-65 (24 residues) without its C-terminal LEK
Tm value of the complex (N39 [1]): 51 °C | Tm value lower than that of the LP-52 by (N39 [6]): 28.1 °C
